Molecular target: T1, Human NKp30 (BKM0179) (human, UniProt O14931)
T1 chain: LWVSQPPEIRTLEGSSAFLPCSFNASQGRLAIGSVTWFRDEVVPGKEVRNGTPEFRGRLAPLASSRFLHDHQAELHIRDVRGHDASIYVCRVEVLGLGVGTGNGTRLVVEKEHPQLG

- Kd: 3.2 nM
B1: BKM0138 (BJM0411 VL-N95A) (antibody, V domains shown)
VH: EIQLLESGGGLVQPGGSLRLSCAVSGFSITTTGYHWNWVRQAPGKGLEWVGYIYSSGSTSYNPSLKSRFTISRDTSKNTFYLQMNSLRAEDTAVYYCARGDWHYFDYWGQGTMVTVSS
VL: DSVTTQSPLSLPVTLGQPASISCSGEKLSDKYVHWYQQRPGQSPRMLIYENDRRPSGVPDRFSGSNSGNDATLKVEAEDVGVYFCQFWDSTASAVFGGGTKVEIKI

Source: US20260327306 (published 2026)
